Laboratory results from article PMC10877974.

What was measured:
[1] = target: Ad35K++ (recombinant adenovirus serotype 35 fiber knob protein with affinity-enhancing mutations) (adenovirus serotype 35); assay: SEC; Superdex 200 Increase 10/300 GL, 1x Tris-buffered saline, 1 mL/min; cGMP grade Ad35K++
[2] = target: Ad35K++ (recombinant adenovirus serotype 35 fiber knob protein with affinity-enhancing mutations) (adenovirus serotype 35); assay: SDS-PAGE of unboiled sample; reduced 4-15% gradient gel, Laemmli sample buffer with beta-mercaptoethanol, sample not boiled, Coomassie Blue

Ad35K++ (recombinant adenovirus serotype 35 fiber knob protein with affinity-enhancing mutations) (domain or fragment)
stoichiometry N [1]: 3
stoichiometry N [2]: 3
